Experiment: soluble on expression in E. coli; label from the status in PepcDB or PDB records

Sequence | soluble on expression in E. coli
MSLKHQFSRNELAYGQEGLDLLKEKTVAVLGVGGVGSFAAEALARTNIGHIILIDKDDVDITNVNRQIHALTTTIGQSKVTLMEERIKLINPDCKVTPLHMFYTEETYEDLFNNYDIDYFIDASDTIIYKVHLMKECLERGIKMISSMGAANKTDPTRFKIADISKTYMDPMAKIIRNKLKRQGIKKGVPVVFSDESPIVIREDVKATVGDANAINRKGQMPPSSNAFVPSTVGLICASYVVNDILKNIPVRRIKDKGNEGHHHHHH | soluble
MSLKIAIVGCGAMGSVYAGLLASAGNSLWIVDRWKAHVEAINSRGLRLEGPQRDLTAFAHASTTAPDEPMDLVIIAVKASDVETGAQQTLSMIGPETIVLTIQNGLGSADAVAQVVGVDRLAVGIASGFGASLKGPGHAHHNAMQALRFGAYSSLPYERVVAVARVWESAGFDAKAIRDIAVMQWEKLICNVAYSAPCALTGMTVGEVMNDPCMGPVSQAAATEAWSVARALGIQIDVDDPVAHVRAFGARMPAAKPSALLDHEAGRISEIDVINGAVPTQGNKLGIATPVNSTLTQLVRVKERQFREGHHHHHH | soluble
MSLKIAQATARVEAFALVRPYTIALRHVGTVENVIVQLQTASGLIGLGAASAAADVTGESDQACREALLGGAIGWLVGEDIRELPKLCRRLGERMAGRPAARAAVDIALHDLLAQHLGVPLVAMLGRVHTGLPTSITIGIKPLDETLAEAREYLGRGFRILKVKTGLDLEGDIERLARLREQVGDAVHLRVDPNQGYSIAEVEQFVRRTAHLFLEFLEQPIPAGDIAALRALPPDIRLRIAADESLLDERDALKLLTPSPACGIFNIKLMKCGGIRPALAIAGLAEIAGIELMWGCMDESIVSITAALHAALACPATRYLDLDGSLDLARDVVTGGFVLKDGYLSTREAPGLGVQLLSEGHHHHHH | not soluble
MSLKILDCTLRDGGYYTNWDFNSKIVDAYILAMNELPIDYLEVGYRNKPSKEYMGKFGYTPVSVLKHLRNISTKKIAIMLNEKNTTPEDLNHLLLPIIGLVDMIRIAIDPQNIDRAIVLAKAIKTMGFEVGFNVMYMSKWAEMNGFLSKLKAIDKIADLFCMVDSFGGITPKEVKNLLKEVRKYTHVPVGFHGHDNLQLGLINSITAIDDGIDFIDATITGMGRGAGNLKMELLLTYLNKHHGLNVDFNVLGNIITTFTPLLEKYQWGTNLPYMLSGANNIPQKEVMDWVTNRVYSFNSIIRALDNRKNKMEDNAKYPLLNIKNKFDRVVIIGGGFNAIEHKEAIKSFIETHTNTAIIFATARYAREYLDVNAPHFYCLVGNEGHRLTHNINPQNLSGICVLPPYPRPMGTEVPEYAKNVTFELENITFIDQYKDSVTTIALQLAILLTDQDIYLVGYDGYPGNVLSEKEMALTNENRTIFATYTTISGKILKSLTPSIYKEIEVVSVYQFEGHHHHHH | soluble
MSLKILYISQEIFPYLPETDISVVSRKLPQTIQERGNEVRIFMPRYGIINERRNQLHEVIRLSGINMIINDNDHPLIIKVASIQSARMQVYFIDNDDFFKRKTMYDIKPKQENDNDERAIFFVRGALEAIKKLRWIPDVIHCHGWFTALAALYLKKMYADDPCLQKAKVVYSVYDDAGQGVIPETLFGKLGFDKITPDDLSVMEQSSDYLALNRLAIRYADGVIQGSETIAPELTDYISSLEGKAFLPYQGKEDYEEAFDNFYSDLLTANEGHHHHHH | soluble
MSLKISDVVVELFREAAIYLPEDVKNALEEAYKKESSEISKNTLKAIIENNKIAEETQVPLCQDTGVPIVFLKIGKNINSSEIMKIIEEIKEGVKKATEEVPLRPNVVHPLTRENFKTNVGLNSPFINIEFDESLDREIEIIAFPKGAGSENMSALKMLKPSDGIEGIKNFVLETIANAGGKPCPPIVVGIGIGGTADVALKLAKKALLRKIGERHRDKEIANLEKELLEKINSLGIGAMGLGGDITALDVFIEIAGCHTASLPVGICIQCWADRRAIKRIKLDAKEGGSHHHHHH | soluble
MSLKITAVKCILLSCPYAIPGDLEREFCFADGHRTISVIKVETDEGIHGLGETYIGVFAPEATQAIVRQLEVDLVGRDPMDTAGIANILKLATYYWGRFGMSASIAGGIEMALWDLKGKALGVPVHQLLGGKVHDHIPAYASGGNNKPFPELKKELLGYKKLGFGAVKIRINYLEPHEIIEKVAYSREVLGDKTGLGVDACQGVNPKAWNYKEAIGIVRSLEPYKLLFVEEPCEVTDYKGFAKIRAETDCVIAGGETVSSLVEAENYLEAGALDLFQPDAAIIGGISAFRRVAQMCERKFIKLAVHTWAGGVGIMGNYHAAFASPNCTLLELPNNPFPLREEFLVQPLTLVNGGIAAPTAPGLGVEGHHHHHH | soluble
MSLKKDYGSQEDFTQVWNTTMKGLKCCGFTNYTDFEDSPYFKENSAFPPFCCNDNVTNTANETCTKQKAHDQKVEGCFNQLLYDIRTNAVTVGEGHHHHHH | soluble
MSLKKMMDSTTVIITTTDNRVLLQKRDENPDIEYSGYYSLVSGYLEEEETPLDGIIRELKEEFEHKKSQKVHFSSITYLGSEYRADYDRWEYIHHTYLMDDAADIRILEGESFVLLDMDECLRLENLAPHHKLFLLKYRAGLCKIDVREQSKKMFDEITVRDLIKVESVGDVKNYSLLEAGTGFVIGEDTTLSASIPAVEAAKYIGFLQFVPKVLRGNHYHFRKVEYMLILQGRMHATFQKYDDSEAVIEEIWEKGDLVRTLPGCVHTLTALGESNVLTIEFSPQPYVARDVLMNDKEGHHHHHH | soluble
MSLKKPALKYCGIRSLKDLQLAAESQADYLGFIFAESKRKVSPEDVKKWLNQVRVEKQVAGVFVNESIETMSRIAKSLKLDVIQLHGDEKPADVAALRKLTGCEIWKALHHQDNTTQEIARFKDNVDGFVIDSSVKGSRGGTGVAFSWDCVPEYQQAAIGKRCFIAGGVNPDSITRLLKWQPEGIDLASGIEKNGQKDQNLMRLLEERMNRYVSISEEGHHHHHH | soluble
MSLKKYQLVIVGYGGMGSYHVTLASAADNLEVHGVFDILAEKREAAAQKGLKIYESYEAVLADEKVDAVLIATPNDSHKELAISALEAGKHVVCEKPVTMTSEDLLAIMDVAKRVNKHFMVHQNRRWDEDFLIIKEMFEQKTIGEMFHLESRVHGANGIPGDWRHLKAHGGGMVLDWGVHLLDQLLFLVDSNVKSVSANLSFALGDEVDDGFVTFITFENGITAQIEVGTTNFIKLPRWYVKGTEGTGIIHDWDLSGEIVKPTALAKTSEPTPIKAGQGLTKTMAPPSEEATNTLSLPAPAKLAPSFYNNFVDVLNNTSEPIVQNEEVYQVLKLIEAIFEAAETNRTVHSIEGHHHHHH | soluble
MSLKLGIIGSGKIVHDFLTAIDQINNLDVVAISSTKRSENIAQELAKKYSINKTYTDNDELMSDPDVDTVYVAVPNFLHYQVAKAALEHGKNVICEKPFVDSTNEAKKLKQLADEKNLIIVEAITNIYLENFKRIQREIENIAPIHIVSLNYTQYSSRYDDFLKGKIAPVFDPAKDGGTLMDLNIYNIHLVSALFGLPDKVKYYANMQKGVDTSGILHLSYPDKQAALIAAKDSYVTPRSFIEGEKGSIYIDGSTGELNNFTIEMRDQKPKRYNLNKYSHRMASEFNAFVEMIDNHDKVKADEAFVNTLESMQILTTAKNSEEGHHHHHH | soluble
MSLKLIGIVGSNADSSYNRLLLQYIGKEFYKMFDLEILEIKDIPMFNQSKDQTNSVLIQNMNRKILQADGVIIATPEHNHTIPAGLKSVLEWLSFKIHPLENKPVMIVGCSYYDQGTSRAQLHLRQILDAPGVNAIVMPGNEFLLGKAKEAFDENGNLIAEGTRQFLESTLQKFVEFIDVISKLEGAKPKDLPEDLHAKGTIETTIEGVDMAADDWVEQAAEAVQAVEGDTYVKLDRGILTVDQLNYFLKSMPMELTYADSNNQFLYYNKKMAAEEMFAKRQPGQVGNPLANCHPPKALKNVEWVIQQLRSGKTDAIRVHVPMHGPDTYVVHNYQAMYDDNGNYAGINEYILDFKPIVDWYLKQTGQELVGGKNVDAVSGASKKEAPETADSVSSASVHEEESATEKPTVDSVSSASIKEEGHHHHHH | soluble
MSLKLPVPSPMRLAVTHEGRSIIYIPSPEYAVASGRLEPAWLEVFYNPAMEFNRDVSVVAASALRRTGLLTRSGVAFDAHAGVGVRGVRYAVEAGYVKVIMNDINPKASMLAALNARANGLEPGSYMIFNKESNSLMFHLSRERPTPVSLIDIDPYGSPAPFVDAALALSGKGTVVAMTATDLAVLEGGKARAAVRRYMLRSVSKTPVSKETGLRVLLGYVARVAAAHDKAVKPLLAYYADHYYRVYVAVERGARRSDSMLEENLGRLVYCPETGVALALSYAEDPASACGGSYVVAADPAWIGSLGDQAFLEAMLNIAVEAVWLGTRPRVEKLLNTLHGEAPLSPRSIYVSLTSVASKARVNTPKKSKVVELLRSMGYRAVATHFSGEGVRTDAPWGEVLEAVVKLGSSGEGHHHHHH | not soluble
MSLKLVKLETFSTEFVCFVRATAEDGAQGWGQVAPYYADITAQVLHRQVAPYALGMACEDIDAMLDIVRDREHKFPGSYLRRAMGGVDTALWDMHGRRAGKPVCVLIGGTPGPVRAYGSSMKRDITPRDEAARLVRLRDEQGFDAFKFRIGAEVGRDRDEWPGRTEEIVPTMRRAMGDDVALLVDANSCYSPARAIEVGRMLEQHGISHYEEPCPYWEFAQTKEVTDTLDLDITGGEQDCLMERWQTMIADRVVDVLQPDICYLGGLSRTLRVARMAEAAGMPITPHAANLSMVTLFTMHLLRAIPNAGKYLEFSIEGLDYYPWQQGLFTSDPYRIEEGHATVTDAPGWGVDVNPDWLARSDYRVSELGEGHHHHHH | soluble
MSLKMANPKYKRILIKLSGEALAGERGVGIDIQTVQTIAKEIQEVHSLGIEIALVIGGGNLWRGEPAAEAGMDRVQADYTGMLGTVMNALVMADSLQQVGVDTRVQTAIAMQQVAEPYVRGRALRHLEKGRIVIFGAGIGSPYFSTDTTAALRAAEIEADAILMAKNGVDGVYNADPKKDKTAVKFEELTHRDVINKGLRIMDSTASTLSMDNDIDLVVFNMNQSGNIKRVVFGENIGTTVSNNIEEKEEGHHHHHH | soluble
MSLKNIVFDFGGVIVDIDRDKAVQAFIKLGLADADTRLDKYHQTGIFQELEEGKLSADEFRKQLGDLCGRELTMEETKQAWLGFFNEVDLRKLDYILGLRKSYHVYLLSNTNPFVMSWACSPEFSSEGKPLNDYCDKLYLSYQLGHTKPAPEIFDFMIKDSHVIPSETLFVDDGSSNIHIGKELGFETFQPENGADWRQELTVILNSEGHHHHHH | soluble
MSLKNREWYKDAVFYEVLVRAFYDPEGNGVGSLKGLTEKLDYIQWLGVDCIWIPPFYDSPLRDGGYDIRNFREILPEFGTVDDFVELIDHAHRRGLRVITDLVMNHTSDQHAWFQESRRDPTGPYGDFYVWSDDPTLYNEARIIFVDTEESNWTYDPVRGQYFWHRFFSHQPDLNYDNPAVQEAMLDVLRFWLDLGLDGFRLDAVPYLFEREGTNGENLKETHDFLKLCRSVIEKEYPGRILLAEANQWPQDVVEYFGEKDKGDECHMAFHFPLMPRIFMGVRQGSRTPISEILANTPEIPKTAQWGIFLRNHDELTLEMVSDEERSYMYSQFAMEPRMRANVGIRRRLSPLLEGDRNQLELLHGLLLSLPGSPVLYYGDEIGMGDNIWLHDRDGVRTPMQWSNDRNGGFSKADPERLYLPAIQNDQYGYAQVNVESQLNRENSLLRWLRNQILIRKQYRAFGAGTYREVSSTNESVLTFLREHKGQTILCVNNMSKYPQAVSLDLREFAGHTPREMSGGQLFPTIAEREWIVTLAPHGFFWFDLTADEKDDMEEGHHHHHH | soluble
